Measured values taken from paper PMC13624870.

Tests used:
amyloid-β 40 (Aβ40) [1] = test: ITC; ZF2–4 (300 µM) titrated into monomeric Aβ40 (20 µM); one-set-of-sites model; 20 mM HEPES, pH 7.4, 1 mM DTT; 10°C; heat of dilution of ZF2–4 subtracted
amyloid-β 40 (Aβ40) [2] = molecular target: amyloid-β 40 (Aβ40)
[3] = molecular target: fluorophore-conjugated Aβ40 (HF488Aβ40); test: other fluorescence titration; fluorescence quenching of fluorophore-conjugated Aβ40 (HF488Aβ40) by ZF2–4; conditions in Figure S9
[4] = molecular target: uniformly 15N-labeled Aβ40; test: NMR titration; 2D 1H–15N SOFAST–HMQC of 20 µM 15N-labeled Aβ40 with 200 µM ZF2–4 or ZFx′; 20 mM HEPES, pH 7.4, 1 mM DTT, 10% v/v D2O; 10°C

Substance “ZF2–4 (tandem array of three Cys2His2-type zinc finger modules of PARIS) (domain or fragment)” has a Kd (amyloid-β 40 (Aβ40) [1]) of 1960 nM, a dH (amyloid-β 40 (Aβ40) [1]) of -1.31 kcal/mol and a stoichiometry N (Aβ40 per ZF2–4) (amyloid-β 40 (Aβ40) [1]) of 1.7. It also gave a decrease in the size of Aβ40 liquid droplets (LLPS, confocal microscopy) with equimolar ZF2–4 (100 µM each) relative to Aβ40 alone (amyloid-β 40 (Aβ40) [2]) of 93.7%, a Kd [3] of 320 nM and a stoichiometry N (Aβ40 per ZF2–4) [3] of 1.5. The average decrease in NMR signal intensity of 15N-labeled Aβ40 [4] was 41.9%.
